The values below come from patent US20080050375A1 (Eli Lilly, published 2008).

Residue numbers refer to the chain shown, from its start. Some results are limits rather than exact numbers.

Sequences and labels used below:
T1: human TGF-beta 3 (RDI, Cat # RDI-1036/CF) (human, UniProt P10600 301-412)
T1 construct: Bought recombinant protein; also called TGF-β3; TGF-p3
T1 sequence (looked up): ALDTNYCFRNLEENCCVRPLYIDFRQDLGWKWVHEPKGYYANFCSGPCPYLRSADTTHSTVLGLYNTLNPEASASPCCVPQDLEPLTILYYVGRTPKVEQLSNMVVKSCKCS

B1: mAb 21D1 (antibody, human IgG4 S228P, kappa, V domains shown)
VH: QVQLVQSGAEVKKPGASVKVSCKASGYTFTDYNIHWVRQAPGQGLEWMGYIYPYDGETGYNQKFKSRVTMTTDTSTSTAYMELRSLRSDDTAVYYCARGYRWFAYWGQGTLVTVSS
VL: DIQMTQSPSSLSASVGDRVTITCRASSSVPYMHWFQQKPGKAPKSLIYATSNPAYGVPSRFSGSGSGTDFTLTISSLQPEDFATYYCQQWDLNPPAFGQGTKLEIKR
notes: Full-length IgG4 antibody; also called LA307-21D1
B2: mAb 23A3 (antibody, IgG4, V domains shown)
VH: B1 VH with T28D, I34M, H35V, Y50S, W102A, A104E
VL: DIQMTQSPSSLSASVGDRVTITCRASSSVPYMHWYQQKPGKAPKLLIYATSNPAYGVPSRFSGSGSGTDFTLTISSLQPEDFATYYCQQWDLNPPAFGQGTKLEIK
B3: mAb DM7 (antibody, IgG4, V domains shown)
VH: B1 VH with T28D, I34M, F103L, A104Y
VL: B2 VL with P30S, L45P, P53L, Y55K
B4: mAb DM4 (antibody, human IgG4 S228P, kappa, V domains shown)
VH: B1 VH with T28D, F103L
VL: B1 VL with P30S, F35Y, S45P, P53L
notes: Full-length IgG4 antibody; also called LA307-DM4
B5: Fab DM4 (Fab, V domains shown)
VH: B1 VH with T28D, F103L
VL: B2 VL with P30S, L45P, P53L
notes: Fab with human constant regions (kappa light chain)
B6: Fab 23A3 (Fab, V domains shown)
VH: B1 VH with T28D, I34M, H35V, Y50S, W102A, A104E
VL: B2 VL
notes: as for B5
B7: Fab DM7 (Fab, V domains shown)
VH: B1 VH with T28D, I34M, F103L, A104Y
VL: B2 VL with P30S, L45P, P53L, Y55K
notes: as for B5
B8: Fab 21D1 (Fab, V domains shown)
VH: B1 VH
VL: B2 VL with Y35F, L45S
notes: Fab with human constant regions (kappa light chain) from M13 expression vectors
B9: Fab C27 (Fab, V domains shown)
VH: B1 VH with W102A, A104E
VL: B2 VL with G40E, L45S, P53L, Y55F

T3 sequence (P01137 30-390 limits assumed): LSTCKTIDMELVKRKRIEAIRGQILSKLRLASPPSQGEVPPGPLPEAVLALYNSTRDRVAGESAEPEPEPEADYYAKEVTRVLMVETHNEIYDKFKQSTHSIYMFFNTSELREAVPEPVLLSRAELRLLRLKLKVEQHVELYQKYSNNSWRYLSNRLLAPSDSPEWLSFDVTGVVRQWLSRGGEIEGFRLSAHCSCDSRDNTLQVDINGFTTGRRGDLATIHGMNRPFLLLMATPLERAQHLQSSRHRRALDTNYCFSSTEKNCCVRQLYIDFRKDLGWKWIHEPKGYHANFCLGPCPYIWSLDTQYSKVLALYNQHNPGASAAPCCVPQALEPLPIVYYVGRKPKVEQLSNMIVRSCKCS

In one test the target is T2, human TGF-beta 1 (R&D Systems, Cat # 240-B/CF) (human, UniProt P01137 279-390).
T2 construct: They match K95 and residues 58-61 of mature numbering; also called TGF-β1; mature TGF-β1
Put plainly: Biacore SPR, mAb captured on Protein A, TGF-beta 1 injected. The procedure: (§1) Alternate methods of measuring kinetic constants are known, for example: affinity of a binding composition for human TGF-beta 1 (R&D Systems, Cat #240-B/CF), TGF-beta 2 (RDI, Cat # RDI-1035) and TGF-beta 3 (RDI, Cat # RDI-1036/CF) is measured using a BlAcore® 2000 instrument. The BIAcore® utilizes the optical properties of surface plasmon resonance to detect alteration in protein concentration of interacting molecules within a dextran biosensor matrix. Except as noted, all reagents and materials are purchased from BIAcore® AB (Upsala, Sweden). All measurements are performed at room temperature. Samples are dissolved in HBS-EP buffer (150 mM sodium chloride, 3 mM EDTA, 0.01% (w/v) surfactant P-20, and 10 mM HEPES, pH7.4). Recombinant Protein A is immobilized on all four flow cells of a CM4 sensor chip at a level of 400-450 response units (RUs) using an amine coupling kit.
(§2) Binding is evaluated using multiple analytical cycles. Each cycle is performed at a flow rate of 50 μL/minute and consists of the following steps: injection of 12 μL of an antibody binding composition at 0.5 μg/mL, injection of 250 μL of TGF-beta 1 (starting at 5 nM and using two-fold serial dilutions to 0.13 nM for each cycle, with two injections for each concentration) followed by either a short (5 minutes) or long (120 minutes) delay for dissociation, and regeneration using two injections of 50VL of 10 mM glycine hydrochloride, pH1.5. Association and dissociation rates for each cycle are determined by fitting of the biosensor data using to a simple association model using ClampXP (Center for Biomolecular Interaction Analysis, Univ. of Utah) to extract the kₒₙ and koff rate constants; the equilibrium binding constant Kd is calculated using the relationship Kd=koff/kₒₙ. Model data for invention compositions are in Table 3 shown below.
In turn, B1 showed a koff of less than 6e-06 s⁻¹ and an on-rate constant (kon) of 1.3e+07 M⁻¹ s⁻¹.

B2 yielded a koff of 1e-05 s⁻¹ and a kon of 1.9e+07 M⁻¹ s⁻¹.

As to B3, the koff was less than 7e-06 s⁻¹ and the on-rate constant (kon) worked out at 1.3e+07 M⁻¹ s⁻¹.

B4 returned a koff of 1.4e-05 s⁻¹ and a kon of 1.6e+07 M⁻¹ s⁻¹.

The target in another test is T2, human TGF-beta 1 (R&D Systems, Cat # …). Put plainly: KinExA 3000, Fab in solution, antigen on beads. The method, then:
(§3) A KinExA 3000 instrument (Sapidyne Inst. Inc.) is used to measure binding kinetics. Briefly, an antigen is covalently coupled to alzactone beads and the binding of a free Fab binding composition of the invention to the beads is detected on the instrument. […] After the incubation, free Fab in each equilibrated sample is determined on the KinExA 3000 according to the manufacturer's instructions. Kd values are determined using KinExA 3000 software.
(§4) To measure kₒₙ, individual Fabs at 2 nM are mixed with 0-240 nM of antigen using the injection method according to the manufacturer's instructions, and the unbound Fab is detected. The resulting data is used to calculate the kₒₙ with KinExA 3000 software. The koff is calculated by using the formula Kd=koff/kₒₙ.
Molecule B5 registered a kon of 4.2e+06 M⁻¹ s⁻¹.

Consider B6, for which the on-rate constant (kon) amounted to 4.8e+06 M⁻¹ s⁻¹.

Molecule B7 gave a kon of 4.5e+06 M⁻¹ s⁻¹.

The molecule B8 registered a kon of 4e+06 M⁻¹ s⁻¹.

The target in another test is human TGF-beta 1 (R&D Systems, Cat # 240-B/CF) (human) (UniProt P01137). Nature of the test: KinExA 3000, equilibrium, Fab in solution.
For the molecule B9, the Kd turned out to be 4.2 pM.

For the next test, the target named is T1, human TGF-beta 3 (RDI, Cat # …). Put plainly: Biacore SPR, equilibrium fit, mAb captured on Protein A, TGF-β3 injected. The method, then:
(§5) Affinities of binding composition mAbs for TGF-p3 are determined using BIAcore methods. All measurements are performed at room temperature. Samples are dissolved in HBS-EP buffer (150 mM sodium chloride, 3 mM EDTA, 0.01% (w/v) surfactant P-20, and 10 mM HEPES, pH7.4). Recombinant Protein A is immobilized on four flow cells of a CM4 sensor chip at a level of 400-450 response units (RUs) using an amine coupling kit. Binding is evaluated over multiple analytical cycles. Each cycle is performed at a flow rate of 100 μL/minute consisting of the following steps: injection of 15 μL of an antibody binding composition at 0.5 μg/mL, injection of 250 μL of TGF-β3 (starting at 5 nM and using two-fold serial dilutions to 0.13 nM for each cycle, with two injections for each concentration) followed by a short (5 minutes) delay for dissociation, and regeneration using two injections of 50VL of 10 mM glycine hydrochloride, pH1.5.
(§6) Affinities are determined based upon the equilibrium signal as reached at varying TGF-β3 concentrations by measuring the average signal during the last 10 seconds of the TGF-β3 injections, and then fitting the resulting signals at all of the TGF-β3 concentrations to a simple binding equilibrium model in SCRUBBER (Center for Biomolecular Interaction Analysis, Univ. of Utah). Model data determined for tested human mab composition of the invention of Kd and specificity calculated by dividing the Kd for TGF-β3 binding by the Kd for TGF-β1 binding (herein) is shown below in Table 5.
For the molecule B1, the Kd worked out at 4900 pM.

In turn, B2 showed a Kd of 660 pM.

The molecule B3 had a Kd of 1160 pM.

In turn, B4 returned a Kd of 530 pM.

Another test addresses T2, human TGF-beta 1 (R&D Systems, Cat # …). Put plainly: Biacore SPR, calculated koff/kon. The method, then:
as §1, §2
Consider B1, for which the Kd was less than 0.5 pM.

Take B2: the Kd was 0.8 pM.

Turning to B3, the Kd is less than 0.5 pM.

On to B4, for which the Kd is 0.9 pM.

A further test has as its target human TGF-beta 1 (R&D Systems, Cat # 240-B/CF) (human) (UniProt P01137). Nature of the test: calculated from KinExA Kd and kon.
Take B9: the koff is 1.7e-05 s⁻¹.

The target of the next test is T2, human TGF-beta 1 (R&D Systems, Cat # …). Put plainly: KinExA 3000, equilibrium, Fab in solution. The method, then: as §3
On to B5, for which binding was put at a Kd of 1.2 pM.

B6 yielded a Kd of 4 pM.

In turn, B7 displayed a Kd of 0.5 pM.

On to B8, for which the Kd was 0.9 pM.

Another test has the same target. Nature of the test: calculated from KinExA Kd and kon. The procedure:
as §3, §4
As to B5, the koff is 5.1e-06 s⁻¹.

As to B6, the koff is 1.9e-05 s⁻¹.

For the molecule B7, the koff was 2.3e-06 s⁻¹.

As to B8, the koff is 3.4e-06 s⁻¹.

The target is the same in the next test. Put plainly: Biacore SPR, mAb captured on Protein A, 5 nM ligand injected; stoichiometry from captured signals. The method, then: (§7) BIAcore methods are used to determine the ability of invention mAb compositions to bind other entities, specifically the latent form of TGF-beta 1 or TGF-beta 3. All measurements are performed at room temperature. Samples are dissolved in HBS-EP buffer (150 mM sodium chloride, 3 mM EDTA, 0.01% (w/v) surfactant P-20, and 10 mM HEPES, pH7.4). Recombinant Protein A is immobilized on all four flow cells of a CM4 sensor chip at a level of 400-450 response units (RUs) using an amine coupling kit.
(§8) Binding is evaluated using multiple analytical cycles. Each cycle is performed at a flow rate of 100 μL/minute consisting of the following steps: injection of 15 μL of an antibody binding composition at 1 μg/mL, injection of 250 μL of either 5 nM TGF-beta 1, 5 nM latent TGF-beta 1, or 5 nM TGF-beta 3 followed by a short delay (5 min) for dissociation, and regeneration using two injections of 50 μL of 10 mM glycine hydrochloride, pH1.5. The amount of signal after capturing first the Mab, and then the ligand, are determined using the instrument control software. Since the signal is proportional to the mass of protein captured, the stoichiometry of the captured ligand is readily calculable (Table 4).
For the molecule B1, the “Stoichiometry of ligand binding” value is 1.29.

As to B2, the “Stoichiometry of ligand binding” value worked out at 1.63.

Take B3: the “Stoichiometry of ligand binding” value is 1.23.

In the case of B4, the “Stoichiometry of ligand binding” value was determined as 1.55.

The target in the next test is T1, human TGF-beta 3 (RDI, Cat # …). The test is described as above. The method, then: as §7, §8
On to B1, for which the “Stoichiometry of ligand binding” value is 0.16.

For the molecule B2, the “Stoichiometry of ligand binding” value was determined as 1.26.

For the molecule B3, the “Stoichiometry of ligand binding” value came out at 0.54.

A further test concerns the target T3, latent TGF-beta 1 (UniProt P01137 30-390, limits assumed).
T3 construct: Latent complex (pro-peptide with mature TGF-beta 1); also called Latent TGF-β1; latent form of TGF-beta 1
The description is as above. The method, then:
as §7, §8
As for B1, the “Stoichiometry of ligand binding” value is 0.05.

For B2, the “Stoichiometry of ligand binding” value was 0.07.

Take B3: the “Stoichiometry of ligand binding” value came out at 0.04.

In the case of B4, the “Stoichiometry of ligand binding” value was 0.03.

The target of a further test is human TGF-beta 1 (R&D Systems, Cat # 240-B/CF) (human) (UniProt P01137). Put plainly: KinExA 3000, Fab in solution, antigen on beads.
The molecule B9 showed an association rate constant (kon) of 4.1e+06 M⁻¹ s⁻¹.

The target in another test is T1, human TGF-beta 3 (RDI, Cat # …). Put plainly: ratio of Biacore Kd for TGF-β3 to Kd for TGF-β1. The procedure:
as §5, §6
Take B1: the “Specificity (Kd, β3/Kd, β1)” value is 9800 fold.

On to B2, for which the “Specificity (Kd, β3/Kd, β1)” value was determined as 1050 fold.

In the case of B3, the “Specificity (Kd, β3/Kd, β1)” value was determined as 2320 fold.

Consider B4, for which the “Specificity (Kd, β3/Kd, β1)” value is 621 fold.

Another test addresses T2, human TGF-beta 1 (R&D Systems, Cat # …). Put plainly: cell-based or functional assay.
With B1, the “Fold Improvement in IC50 relative to mAb2471 (HT-2 cell proliferation assay)” value was 107 fold.

Consider B2, for which the “Fold Improvement in IC50 relative to mAb2471 (HT-2 cell proliferation assay)” value is 234 fold.

Take B3: the “Fold Improvement in IC50 relative to mAb2471 (HT-2 cell proliferation assay)” value was determined as 140 fold.

As to B4, the “Fold Improvement in IC50 relative to mAb2471 (HT-2 cell proliferation assay)” value came out at 391 fold.
